Source: patent US20220143148A1, “COMPOSITIONS AND METHODS FOR MODULATING CGRP SIGNALING TO REGULATE INTESTINAL INNATE LYMPHOID CELLS” (The Broad Institute, Inc., priority 2019, published 2022)

Test system: small intestinal immune cells
Assay: Droplet-based scRNA-seq of small intestinal immune cells (LP and PP), OVA vs PBS, clustering and differential expression
Type: in vivo, mouse
From the text: To comprehensively characterize small intestinal immune cells, Applicants generated scRNA-Seq profiles for 58,067 immune cells collected from lamina propria (LP) and Peyer's patch (PP) regions at steady state and after induction of a type 2 inflammatory reaction to ovalbumin (OVA) (Brandt et al., 2003) (FIGS. 1A and 8A). To ensure sufficient representation of rare cells, Applicants combined a normalization strategy—removing by flow sorting either a portion of IgD+ naïve B cells, which are the most abundant cell type in PPs, or all CD19+ and CD3+ T cells (FIG. 8B, Methods)—with profiling of a sufficiently large number of cells number (P>0.99 to recover at least 15 cells from each cluster, Methods) by massively parallel scRNA-seq (Haber et al., 2017) (Methods). Applicants obtained 36,797 and 21,270 high quality cells passing initial filtering (Methods) from PP and LP regions, respectively.
Overall, Applicants annotated 27 cell subsets across the two compartments, spanning T cells, B cells, ILCs, dendritic cells (DCs), myeloid cells and stromal cells, in frequencies ranging from 0.07% to 14%. Briefly, Applicants first partitioned the cells from the PP regions by unsupervised clustering (Methods) into 46 clusters, retained the 97% of cells that were robustly assigned cell identities in each cluster (Methods), assigned the cells from the LP regions to the 46 clusters using a classifier (Methods), and visualized the data with scvis (Ding et al., 2018), a deep generative model-based method (FIGS. 1B and 8C, Methods). Next, Applicants identified genes that were differentially expressed between the cells in each cluster and the remaining cells (Table 1, Methods), as well as between pairs of clusters (Table 2), to elucidate identities of similar cell types/states. Applicants excluded from downstream analysis clusters mostly consisting of contaminants from epithelium, likely doublets, or cells with a small number of Unique Molecular Identifiers (UMIs) (FIGS. 1C and 8D), or lacking distinct markers (Methods). Altogether, Applicants retained 27 clusters spanning 85% of the cells and each associated with distinct marker genes (FIG. 8E, Methods).
To induce allergic reaction to OVA, 6 to 7 weeks old mice were sensitized twice, two weeks apart, with 50 μg of OVA plus 1 mg of aluminum potassium sulfate adjuvant via intraperitoneal injection. Two weeks later, mice were orally administered with 50 mg of OVA on every other day for a total of five times. 1 μg of α-CGRP peptide was administered simultaneously when indicated. Mice were deprived of food for 3-4 hours in cages with wood chip bedding for limiting antigen degradation in the stomach before each intragastric challenge.
Isolation of cells from Peyer's patches (PPs). Peyer's patches (PPs) were carefully dissected from the small intestine under a stereo microscope using a fine scissor, pierced once with a fine forcep. Tissues were digested in freshly made digestion buffer (RPMI-1640 containing 100 μg/ml Liberase™ and 50 μg/ml DNase I at 37° C. on a roto-mixer. After 15 min, tissues were very gently mixed using a 1 ml pipette. The supernatant was collected and added to ice-cold MACS buffer (pH 7.4; PBS plus 2% FCS and 2 mM EDTA). Pre-warmed (37° C.) fresh digestion buffer was added to the remaining tissues. After rotation at 37° C. for 15 min, the mixture was vigorously mixed using a 1 ml pipette for 1 min. Supernatants from the two steps were combined and passed through 70 μm filters and stained for FACS (below).
Isolation of cells from the lamina propria (LP). The small intestines were opened longitudinally and washed in ice-cold PBS. For scRNA-seq, roughly 0.5 cm of fragments from each of the distal, middle and proximal regions without visible PPs were collected. Epithelial cells were dissociated by tissue rotation in pre-warmed (37° C.) PBS containing 10 mM EDTA at 37° C. for 15 min, followed by additional incubation on ice for 15 min. Tissues were then shaken vigorously. […]

B1: OVA (protein, UniProt P01012 2-386, looked up)
Ovalbumin: GSIGAASMEFCFDVFKELKVHHANENIFYCPIAIMSALAMVYLGAKDSTRTQINKVVRFDKLPGFGDSIEAQCGTSVNVHSSLRDILNQITKPNDVYSFSLASRLYAEERYPILPEYLQCVKELYRGGLEPINFQTAADQARELINSWVESQTNGIIRNVLQPSSVDSQTAMVLVNAIVFKGLWEKAFKDEDTQAMPFRVTEQESKPVQMMYQIGLFRVASMASEKMKILELPFASGTMSMLVLLPDEVSGLEQLESIINFEKLTEWTSSNVMEERKIKVYLPRMKMEEKYNLTSVLMAMGITDVFSSSANLSGISSAESLKISQAVHAAHAEINEAGREVVGSAEAGVDAASVSEEFRADHPFLFCIKHIATNAVLFFGRCVSP
Cluster ID 5, PP, OVA vs PBS
  Txnip: LN (average fold change): 0.660
  Uba52: LN (average fold change): 0.277
  Ucp2: LN (average fold change): 0.325
  Wdr89: LN (average fold change): 0.291
  Zfp36l2: LN (average fold change): 0.865
Cluster ID 6, PP
  AY036118: percentage of expressing cells in OVA-treated group: 0.426
  Atf3: percentage of expressing cells in OVA-treated group: 0.091
  Atp5h: percentage of expressing cells in OVA-treated group: 0.963
  B3gnt8: percentage of expressing cells in OVA-treated group: 0.486
  Bcl2l11: percentage of expressing cells in OVA-treated group: 0.257
  Bhlhe40: percentage of expressing cells in OVA-treated group: 0.465
  Bloc1s2: percentage of expressing cells in OVA-treated group: 0.784
  Btg2: percentage of expressing cells in OVA-treated group: 0.801
  Ccl4: percentage of expressing cells in OVA-treated group: 0.848
  Cd68: percentage of expressing cells in OVA-treated group: 0.861
  Cd83: percentage of expressing cells in OVA-treated group: 0.092
  Cdv3: percentage of expressing cells in OVA-treated group: 0.414
  Clcn3: percentage of expressing cells in OVA-treated group: 0.35
  Clec10a: percentage of expressing cells in OVA-treated group: 0.532
  Clec2d: percentage of expressing cells in OVA-treated group: 0.578
  Coq10b: percentage of expressing cells in OVA-treated group: 0.242
  Crem: percentage of expressing cells in OVA-treated group: 0.34
  Cxcr3: percentage of expressing cells in OVA-treated group: 0.516
  Cxcr4: percentage of expressing cells in OVA-treated group: 0.561
  D13Ertd608e: percentage of expressing cells in OVA-treated group: 0.947
  Ddit4: percentage of expressing cells in OVA-treated group: 0.221
  Ddx3x: percentage of expressing cells in OVA-treated group: 0.436
  Defa24: percentage of expressing cells in OVA-treated group: 0.099
  Dnajc7: percentage of expressing cells in OVA-treated group: 0.987
  Dusp1: percentage of expressing cells in OVA-treated group: 0.406
  Dusp5: percentage of expressing cells in OVA-treated group: 0.668
  Dusp18: percentage of expressing cells in OVA-treated group: 0.091
  Egr1: percentage of expressing cells in OVA-treated group: 0.143
  Emp3: percentage of expressing cells in OVA-treated group: 0.936
  Erdr1: percentage of expressing cells in OVA-treated group: 0.149
  Fabp2: percentage of expressing cells in OVA-treated group: 0.048
  Fam46c: percentage of expressing cells in OVA-treated group: 0.221
  Filip1l: percentage of expressing cells in OVA-treated group: 0.384
  Fkbp5: percentage of expressing cells in OVA-treated group: 0.161
  Fosb: percentage of expressing cells in OVA-treated group: 0.332
  Fosl2: percentage of expressing cells in OVA-treated group: 0.141
  Foxp1: percentage of expressing cells in OVA-treated group: 0.719
  Fyn: percentage of expressing cells in OVA-treated group: 0.756
  Gapdh: percentage of expressing cells in OVA-treated group: 0.911
  Gapt: percentage of expressing cells in OVA-treated group: 0.657
  Gnb1: percentage of expressing cells in OVA-treated group: 0.515
  Grasp: percentage of expressing cells in OVA-treated group: 0.193
  Gtf2i: percentage of expressing cells in OVA-treated group: 0.542
  H2-Aa: percentage of expressing cells in OVA-treated group: 0.947
  H2-Ab1: percentage of expressing cells in OVA-treated group: 0.949
  H2-Eb1: percentage of expressing cells in OVA-treated group: 0.907
  H2afj: percentage of expressing cells in OVA-treated group: 0.935
  Hes6: percentage of expressing cells in OVA-treated group: 0.474
  Hist1h1c: percentage of expressing cells in OVA-treated group: 0.522
  Hist2h4: percentage of expressing cells in OVA-treated group: 0.165
  Ier2: percentage of expressing cells in OVA-treated group: 0.432
  Ier5: percentage of expressing cells in OVA-treated group: 0.937
  Ifi30: percentage of expressing cells in OVA-treated group: 0.883
  Ifrd1: percentage of expressing cells in OVA-treated group: 0.241
  Igha: percentage of expressing cells in OVA-treated group: 0.681
  Igkc: percentage of expressing cells in OVA-treated group: 0.944
  Itpkb: percentage of expressing cells in OVA-treated group: 0.296
  Jun: percentage of expressing cells in OVA-treated group: 0.769
  Junb: percentage of expressing cells in OVA-treated group: 0.745
  Jund: percentage of expressing cells in OVA-treated group: 0.92
  Kdm6b: percentage of expressing cells in OVA-treated group: 0.307
  Klf4: percentage of expressing cells in OVA-treated group: 0.147
  Klk1: percentage of expressing cells in OVA-treated group: 0.964
  Kmt2e: percentage of expressing cells in OVA-treated group: 0.596
  Lag3: percentage of expressing cells in OVA-treated group: 0.605
  Lgals1: percentage of expressing cells in OVA-treated group: 0.985
  Lmnb1: percentage of expressing cells in OVA-treated group: 0.189
  Ly6c1: percentage of expressing cells in OVA-treated group: 0.991
  Lyz1: percentage of expressing cells in OVA-treated group: 0.035
  Mcl1: percentage of expressing cells in OVA-treated group: 0.459
